We go through one molecule from patent US20200062863A1 (CSL BEHRING, published 2020).

Assay [1] addresses T1, Mu-FXII I438A mutant with C-terminal 8xHis-tag (mouse, UniProt Q80YC5 20-597).
T1 construct: Culture supernatant; also called mutant f) I438A
T1 sequence: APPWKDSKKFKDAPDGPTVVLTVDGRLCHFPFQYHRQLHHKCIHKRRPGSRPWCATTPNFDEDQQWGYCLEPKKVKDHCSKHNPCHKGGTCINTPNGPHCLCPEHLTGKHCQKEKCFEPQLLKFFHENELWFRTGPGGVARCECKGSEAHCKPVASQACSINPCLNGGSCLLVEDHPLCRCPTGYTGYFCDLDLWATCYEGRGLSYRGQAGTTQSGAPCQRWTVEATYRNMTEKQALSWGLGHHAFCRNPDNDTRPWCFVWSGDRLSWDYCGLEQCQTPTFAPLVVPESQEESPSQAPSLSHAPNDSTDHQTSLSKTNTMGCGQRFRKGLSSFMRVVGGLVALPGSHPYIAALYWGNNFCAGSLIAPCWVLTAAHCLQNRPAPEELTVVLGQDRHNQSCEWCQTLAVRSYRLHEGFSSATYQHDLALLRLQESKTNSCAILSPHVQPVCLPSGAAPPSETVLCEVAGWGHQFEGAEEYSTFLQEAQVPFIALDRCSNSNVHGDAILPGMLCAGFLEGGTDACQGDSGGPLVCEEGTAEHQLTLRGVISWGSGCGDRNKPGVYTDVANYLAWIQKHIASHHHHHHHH
The assay can be described thus: Western blot, non-reducing, 3F7 mAb detected with anti-human IgG-FITC. As for the experimental part: (§1) Proteins were then transferred electrophoretically onto nitrocellulose filters and blocked for 1 hour in 5% Milk powder in Tris-buffered saline with 0.05% Tween-20 (TTBS). Filters were then incubated for 1 hour with either 3F7 mAb or an anti-His mAb 3H3 (both at […] in TTBS with 5% Milk powder), washed thoroughly with TTBS, then incubated for a further hour with anti-human IgG-FITC or anti-mouse IgG-FITC, respectively (Millipore, USA; both at 0.25 mg/ml in TTBS with 5% Milk powder). Following further washing of membranes in TTBS, Ab-FITC bound proteins were visualized using a Typhoon variable mode analyzer (GE Healthcare, USA).

In assay [2] the target is T2, Mu-FXII N398K mutant with C-terminal 8xHis-tag (mouse, UniProt Q80YC5 20-597).
T2 construct: Mouse to rat residue change; culture supernatant; also called mutant c) N398K
T2 sequence: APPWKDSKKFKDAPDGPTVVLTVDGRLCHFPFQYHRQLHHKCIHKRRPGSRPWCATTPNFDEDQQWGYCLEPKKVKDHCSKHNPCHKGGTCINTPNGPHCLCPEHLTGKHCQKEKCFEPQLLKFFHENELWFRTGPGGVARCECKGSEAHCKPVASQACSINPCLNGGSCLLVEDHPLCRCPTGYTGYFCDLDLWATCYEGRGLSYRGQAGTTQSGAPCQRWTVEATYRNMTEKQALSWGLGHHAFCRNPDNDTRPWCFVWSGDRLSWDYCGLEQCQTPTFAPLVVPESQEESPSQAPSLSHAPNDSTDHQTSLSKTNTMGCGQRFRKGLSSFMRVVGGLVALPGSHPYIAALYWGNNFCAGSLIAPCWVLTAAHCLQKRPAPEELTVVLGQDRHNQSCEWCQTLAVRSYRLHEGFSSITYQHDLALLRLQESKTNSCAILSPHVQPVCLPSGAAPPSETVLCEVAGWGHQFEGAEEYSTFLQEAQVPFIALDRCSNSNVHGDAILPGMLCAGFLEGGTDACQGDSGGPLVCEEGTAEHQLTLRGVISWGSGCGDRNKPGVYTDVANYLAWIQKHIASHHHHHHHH
The description is as above. As for the experimental part:
as §1

The target of assay [3] is T3, recombinant wild-type murine Factor XII (Mu-FXII) with C-terminal 8xHis-tag (mouse, UniProt Q80YC5 20-597).
T3 construct: cDNA of the entire Mu-FXII protein (GenBank NM_021489) expressed in Freestyle 293 cells, culture supernatant used; also called recombinant murine FXII; wild-type Mu-FXII
T3 sequence: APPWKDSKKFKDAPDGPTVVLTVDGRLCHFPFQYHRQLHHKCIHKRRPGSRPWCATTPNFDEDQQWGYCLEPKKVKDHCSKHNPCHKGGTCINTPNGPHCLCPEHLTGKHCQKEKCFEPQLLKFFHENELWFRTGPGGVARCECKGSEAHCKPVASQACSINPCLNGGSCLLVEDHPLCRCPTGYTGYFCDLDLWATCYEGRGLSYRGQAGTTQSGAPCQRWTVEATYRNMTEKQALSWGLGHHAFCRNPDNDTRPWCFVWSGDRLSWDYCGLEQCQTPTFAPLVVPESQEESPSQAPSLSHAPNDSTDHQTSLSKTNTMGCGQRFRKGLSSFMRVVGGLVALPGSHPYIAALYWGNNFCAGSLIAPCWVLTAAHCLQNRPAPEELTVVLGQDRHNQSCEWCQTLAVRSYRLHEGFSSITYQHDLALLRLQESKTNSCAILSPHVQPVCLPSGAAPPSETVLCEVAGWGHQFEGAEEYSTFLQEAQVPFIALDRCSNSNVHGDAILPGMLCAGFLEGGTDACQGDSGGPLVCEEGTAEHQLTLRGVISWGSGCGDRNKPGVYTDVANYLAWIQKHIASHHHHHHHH
Put plainly: Western blot, non-reducing. How it is done:
as §1

Another assay concerns the target T4, human Factor XII (human, UniProt P00748 20-615).
T4 construct: Zymogen bought from Enzyme Research Laboratories; also called FXII
T4 sequence: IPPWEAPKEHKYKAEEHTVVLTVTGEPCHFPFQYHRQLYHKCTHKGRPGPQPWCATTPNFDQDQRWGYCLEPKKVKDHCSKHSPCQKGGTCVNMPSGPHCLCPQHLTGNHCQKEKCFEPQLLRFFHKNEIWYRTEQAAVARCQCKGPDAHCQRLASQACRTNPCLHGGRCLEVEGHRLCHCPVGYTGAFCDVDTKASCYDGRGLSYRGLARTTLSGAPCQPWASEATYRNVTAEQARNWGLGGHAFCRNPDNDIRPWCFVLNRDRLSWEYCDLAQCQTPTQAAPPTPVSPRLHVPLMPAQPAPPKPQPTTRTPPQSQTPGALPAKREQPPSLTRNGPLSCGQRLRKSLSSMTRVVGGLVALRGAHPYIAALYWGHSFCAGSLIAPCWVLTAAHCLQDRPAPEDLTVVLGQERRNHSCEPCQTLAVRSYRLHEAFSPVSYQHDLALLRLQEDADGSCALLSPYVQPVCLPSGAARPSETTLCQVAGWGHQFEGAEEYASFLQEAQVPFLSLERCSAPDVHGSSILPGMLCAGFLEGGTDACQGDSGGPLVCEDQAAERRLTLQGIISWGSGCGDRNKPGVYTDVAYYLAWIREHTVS
The assay can be described thus: SPR (Biacore), purified IgG captured on anti-human IgG, FXII 0-500 nM, 1:1 fit, 25 C.

B1: monoclonal antibody 3F7 (fully human IgG4/lambda) (antibody, V domains shown)
VH: EVQLLESGGGLVQPGGSLRLSCAASGFTFSKYIMQWVRQAPGKGLEWVSGIRPSGGTTVYADSVKGRFTISRDNSKNTLYLQMNSLRAEDTAVYYCARALPRSGYLISPHYYYYALDVWGQGTTVTVSS
VL: QSELTQPPSASGTPGQRVTISCSGSSSNIGRNYVYWYQQVPGTAPKLLIYSNNQRPSGVPDRFSGSKSGTSASLVISGLRSEDEADYYCAAWDASLRGVFGGGTKLTVLG
notes: also called 3F7 mAb; MAb 3F7
As to B1, the binding result in assay [1] is recorded as “no binding”; in assay [2], “no binding”; in assay [3] it was “binds”. In the assay with human Factor XII, this molecule returned a Kd of 121 nM.
